We go through 9 molecules from patent publication US20240024475A1 (CURE GENETICS, published 2024).

To fix the notation:
B1: CD70KO-CAR-7D (receptor)
chimeric antigen receptor chain: EVQLVESGGGLVQAGGSLRLSCAASGFTFDDYAIGWFRQAPGKEQEGVSCIRRSDGSTWYANSVKGRFTISNDNAKNTVYLQMNSLKPEDTAVYYCAVDRYGQSWHEGRGALDAWGQGTLVTVSSTTTPAPRPPTPAPTIASQPLSLRPEACRPAAGGAVHTRGLDFACDIYIWAPLAGTCGVLLLSLVITLYCKRGRKKLLYIFKQPFMRPVQTTQEEDGCSCRFPEEEEGGCELRVKFSRSADAPAYKQGQNQLYNELNLGRREEYDVLDKRRGRDPEMGGKPRRKNPQEGLYNELQKDKMAEAYSEIGMKGERRRGKGHDGLYQGLSTATKDTYDALHMQALPPR
notes: The sheet names the CD70-knockout T cells that carry CD70-CAR-7D; also called CD70-CAR-7D
B2: CD70KO-CAR-5B (receptor)
chimeric antigen receptor chain: QVQLVESGGGLVQAGGSLRLSCAASGFTFDDYAIGWFRQAPGKEPEGVSCFRSSDGNIYYSDSVRGRFTISSDNAKNTVYLQMNRLKPEDTAVYYCAAYSVLLRPWVLCEGSYDYWGQGTQVTVSSTTTPAPRPPTPAPTIASQPLSLRPEACRPAAGGAVHTRGLDFACDIYIWAPLAGTCGVLLLSLVITLYCKRGRKKLLYIFKQPFMRPVQTTQEEDGCSCRFPEEEEGGCELRVKFSRSADAPAYKQGQNQLYNELNLGRREEYDVLDKRRGRDPEMGGKPRRKNPQEGLYNELQKDKMAEAYSEIGMKGERRRGKGHDGLYQGLSTATKDTYDALHMQALPPR
notes: The sheet names the CD70-knockout T cells that carry CD70-CAR-5B; also called CD70-CAR-5B
B3: CD70KO-CAR-1E (receptor)
chimeric antigen receptor chain: EVQVVESGGGLVQAGGSLRLSCAASGFAFDDYAIGWFRQAPGKEQERVSCMSSSDGSTYYADSVKGRFTISSDNAKNTVYLQMNSLKPEDTAVYYCAAGVNYYREDGCPGALDYWGQGTQVTVSSTTTPAPRPPTPAPTIASQPLSLRPEACRPAAGGAVHTRGLDFACDIYIWAPLAGTCGVLLLSLVITLYCKRGRKKLLYIFKQPFMRPVQTTQEEDGCSCRFPEEEEGGCELRVKFSRSADAPAYKQGQNQLYNELNLGRREEYDVLDKRRGRDPEMGGKPRRKNPQEGLYNELQKDKMAEAYSEIGMKGERRRGKGHDGLYQGLSTATKDTYDALHMQALPPR
notes: The sheet names the CD70-knockout T cells that carry CD70-CAR-1E; also called CD70-CAR-1E
B4: CD70KO-CAR-L2 (receptor)
chimeric antigen receptor chain: EVQLVESGGGLVQAGGSLRLSCAASGFTVDDYVIGWFRQAPGKEHEGVSCISSNDGSTWYADSVKGRFTISSDNAKNTMYLQMNSLKPEDTAVYYCAAKYAPYGLEYWEGGMDYWGKGTLVTVSSTTTPAPRPPTPAPTIASQPLSLRPEACRPAAGGAVHTRGLDFACDIYIWAPLAGTCGVLLLSLVITLYCKRGRKKLLYIFKQPFMRPVQTTQEEDGCSCRFPEEEEGGCELRVKFSRSADAPAYKQGQNQLYNELNLGRREEYDVLDKRRGRDPEMGGKPRRKNPQEGLYNELQKDKMAEAYSEIGMKGERRRGKGHDGLYQGLSTATKDTYDALHMQALPPR
notes: The sheet names the CD70-knockout T cells that carry CD70-CAR-L2; also called CD70-CAR-L2
B5: CD70KO-CAR-5H (receptor)
chimeric antigen receptor chain: EVQLVESGGGMVQAGGSLRLSCAAPGKIFSFYFMGWYRQAPGKQRELVALITGDGRTNYADSVEGRFTISRDNAKNTVYLQMNSLKPEDTAVYYCYADVFARAGRDEYWGQGTQVSVSSTTTPAPRPPTPAPTIASQPLSLRPEACRPAAGGAVHTRGLDFACDIYIWAPLAGTCGVLLLSLVITLYCKRGRKKLLYIFKQPFMRPVQTTQEEDGCSCRFPEEEEGGCELRVKFSRSADAPAYKQGQNQLYNELNLGRREEYDVLDKRRGRDPEMGGKPRRKNPQEGLYNELQKDKMAEAYSEIGMKGERRRGKGHDGLYQGLSTATKDTYDALHMQALPPR
notes: The sheet names the CD70-knockout T cells that carry CD70-CAR-5H; also called CD70-CAR-5H
B6: CD70KO-CAR-1G (receptor)
chimeric antigen receptor chain: QLQLVESGGGLVQLGGSLTLSCTASGIIFNSDYVGWYRQAPGSDRELVALTSNMRTNYADSVEGRFTISRDNAKNTVYLQMNSLKPEDTAVYYCNVNRMTSYGPRDYWGQGTQVTVSSTTTPAPRPPTPAPTIASQPLSLRPEACRPAAGGAVHTRGLDFACDIYIWAPLAGTCGVLLLSLVITLYCKRGRKKLLYIFKQPFMRPVQTTQEEDGCSCRFPEEEEGGCELRVKFSRSADAPAYKQGQNQLYNELNLGRREEYDVLDKRRGRDPEMGGKPRRKNPQEGLYNELQKDKMAEAYSEIGMKGERRRGKGHDGLYQGLSTATKDTYDALHMQALPPR
notes: The sheet names the CD70-knockout T cells that carry CD70-CAR-1G; also called CD70-CAR-1G
B7: CD70KO-CAR-3H (receptor)
chimeric antigen receptor chain: QLQLVESGGGLVQPGGSLRLSCAASGNILRFNAVGWYRQAPGKQRDLVAAMAGARTNYADSVEGRFTISGNNANNTVYLQMNSLKPEDTGVYYCGADRVYGPPYEYGGRGTQVTVLSTTTPAPRPPTPAPTIASQPLSLRPEACRPAAGGAVHTRGLDFACDIYIWAPLAGTCGVLLLSLVITLYCKRGRKKLLYIFKQPFMRPVQTTQEEDGCSCRFPEEEEGGCELRVKFSRSADAPAYKQGQNQLYNELNLGRREEYDVLDKRRGRDPEMGGKPRRKNPQEGLYNELQKDKMAEAYSEIGMKGERRRGKGHDGLYQGLSTATKDTYDALHMQALPPR
notes: The sheet names the CD70-knockout T cells that carry CD70-CAR-3H; also called CD70-CAR-3H
B8: CD70KO-CAR-5A (receptor)
chimeric antigen receptor chain: EVQLVESGGGLVQAGGSLRLSCAASESIFNNYVMAWYRQPPGKQREAVAQISTDGSAYYQDRVKGRFTISRDNAKNLVNLQMSSLKPEDTAVYYCTAGLQYWGQGTQVTVSSTTTPAPRPPTPAPTIASQPLSLRPEACRPAAGGAVHTRGLDFACDIYIWAPLAGTCGVLLLSLVITLYCKRGRKKLLYIFKQPFMRPVQTTQEEDGCSCRFPEEEEGGCELRVKFSRSADAPAYKQGQNQLYNELNLGRREEYDVLDKRRGRDPEMGGKPRRKNPQEGLYNELQKDKMAEAYSEIGMKGERRRGKGHDGLYQGLSTATKDTYDALHMQALPPR
notes: The sheet names the CD70-knockout T cells that carry CD70-CAR-5A; also called CD70-CAR-5A
B9: CD70KO-CAR-L1 (receptor)
chimeric antigen receptor chain: EVQVVESGGGLVQAGGSLRLSCAASGRTFSSYAMGWVRQAPGKDQEFVAAINWSDGSTYYADSVKGRFTIARDNAKNTAFLQMNSLKPEDTAVYYCAAGCCGVADAPLNALDAWGQGTLVTVSSTTTPAPRPPTPAPTIASQPLSLRPEACRPAAGGAVHTRGLDFACDIYIWAPLAGTCGVLLLSLVITLYCKRGRKKLLYIFKQPFMRPVQTTQEEDGCSCRFPEEEEGGCELRVKFSRSADAPAYKQGQNQLYNELNLGRREEYDVLDKRRGRDPEMGGKPRRKNPQEGLYNELQKDKMAEAYSEIGMKGERRRGKGHDGLYQGLSTATKDTYDALHMQALPPR
notes: The sheet names the CD70-knockout T cells that carry CD70-CAR-L1; also called CD70-CAR-L1

In the test the target is T1, recombinant human CD70 protein (Acrobiosystems: CDL-H82Q9) (human, UniProt P32970 39-193).
T1 construct: Bought from Acrobiosystems; The whole natural entry is named; also called human CD70His fusion protein; recombinant human CD70 antigen having a C-terminal human IgG Fc tag
T1 sequence (looked up): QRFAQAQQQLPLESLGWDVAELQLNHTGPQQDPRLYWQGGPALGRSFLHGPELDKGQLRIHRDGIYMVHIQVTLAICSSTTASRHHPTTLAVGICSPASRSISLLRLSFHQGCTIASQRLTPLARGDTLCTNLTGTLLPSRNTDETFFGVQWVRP
Put plainly: flow cytometry: CAR on CD70-knockout T cells stained with biotinylated human CD70 protein (100 µg/ml) and PE-Streptavidin. Here is the method:
The expression of the CAR targeting CD70 prepared in example 5 in T cells in each group was detected by fluorescence antibody staining and flow cytometry. The specific steps were as follows: CAR-T cells targeting CD70 with lentivirus infection for 48 h, T cells without lentivirus infection and T-KO cells without lentivirus infection were respectively collected by centrifugation; biotinylated human CD70 protein (100 μg/ml) (Acrobiosystems: CDL-H82Q9) was added; and the mixture was incubated at 4° C. in the dark for 30 min, and then washed once with PBS after the incubation. After resuspending in an appropriate volume of PBS, a second antibody PE-Streptavidin (BD Biosciences: 554061) was added to the cells, and the mixture was incubated at 4° C. in the dark for 20 min, washed once with PBS and then resuspended in an appropriate volume of PBS. Finally, the expression efficiency of the CAR targeting CD70 on the surface of the T cells in which CD70 was knocked out was detected using a flow cytometer.
As for B1, the “POS (% of cells in the CD70-PE positive gate)” value stood at 78.4%.

As to B2, the “POS (% of cells in the CD70-PE positive gate)” value was 57.8%.

On to B3, for which the “POS (% of cells in the CD70-PE positive gate)” value amounted to 63.9%.

B4: the “POS (% of cells in the CD70-PE positive gate)” value turned out to be 62.6%.

With B5, the “POS (% of cells in the CD70-PE positive gate)” value worked out at 58.9%.

Take B6: the “POS (% of cells in the CD70-PE positive gate)” value came to 57.5%.

In the case of B7, the “POS (% of cells in the CD70-PE positive gate)” value was determined as 70.8%.

Regarding B8, the “POS (% of cells in the CD70-PE positive gate)” value came out at 74.9%.

As for B9, the “POS (% of cells in the CD70-PE positive gate)” value stood at 82.5%.
